# Experiments:
# rat = experiment: Micro payload injected in rat, hypotension and dye distribution (Example 5); format: in vivo; conditions: half-shell Maltose cone mixed 1 mg Alprostadil, indicates vasodilation
# Experimental: A sample of micro payload integrated a 1 mm length conic micro-head with drug and 2 mm length micro-stem without drug was injected in rat.
# skin [1] = conditions: in vivo
# skin [2] = conditions: rat, in vivo
# Excerpt: (§1) Quadrangular pyramidal micro-head of 0.7 mm length and 0.1 mm bottom side length was contained anhydrous and amorphous oblate spheroidal Maltose chip of 0.02 mm length and 0.01 mm diameter. The chip was made from mixing material of 50% Maltose and 50% Hyaluronic acid included 30% albumen which was non-heat resistance limited in 70 degree centigrade. Three micro-heads were installed in three lengths of micro implements of 1 mm, 2 mm, and 3 mm.
# [3] = format: physicochemical
# Excerpt: as §1
compound,measurement,setting,value
CCCCC[C@H](O)/C=C/[C@H]1[C@H](O)CC(=O)[C@@H]1CCCCCCC(=O)O [Alprostadil],hypotension,rat,20 mmHg
Hyaluronic acid,transfer of chip into skin,skin [1],completely transferred into skin
albumin,aggregation depths versus implement length,skin [2],corresponded to the three length respectively
same,deposition in skin,skin [2],albumin aggregation in skin
same,heat stability in forming process,[3],resisted temperature of the micro implement forming process
